Test results: PMC10848371
Where two headings read alike, the source gives them in different places.

PD-1 (programmed cell death protein 1): 3NQ (N49Q, N58Q, N74Q)
decreases: localisation_or_trafficking (N-glycosylation at N49) | stability_or_folding (N-glycosylation at N49) | localisation_or_trafficking (N-glycosylation at N58) | stability_or_folding (N-glycosylation at N58) | localisation_or_trafficking (N-glycosylation at N74) | stability_or_folding (N-glycosylation at N74)
